Data on four substances can be found in paper PMC10754444.

For this assay, the target named is ubiquitin (UniProt P0CG48).

For the substance “PRRSV DV PLP2_(385-578) V518S (domain or fragment)”, the Kcat/Km of Ub-AMC hydrolysis in vitro (substrate Ub-AMC, R&D Systems; 0.5 μM enzyme; 25°C) is 1100 M⁻¹ s⁻¹.

“PRRSV DV PLP2_(385-578) V518S/V520A (domain or fragment)” gave a Kcat/Km of Ub-AMC hydrolysis in vitro (substrate Ub-AMC, R&D Systems; 1.0 μM enzyme; 25°C) of 133 M⁻¹ s⁻¹.

For the substance “PRRSV DV PLP2_(385-578) V520A (domain or fragment)”, the Kcat/Km of Ub-AMC hydrolysis in vitro (substrate Ub-AMC, R&D Systems; 1.0 μM enzyme; 25°C) turned out to be 190 M⁻¹ s⁻¹.

On to “wt PRRSV DV PLP2_(385-578) (domain or fragment)”, for which the Kcat/Km of Ub-AMC hydrolysis in vitro (substrate Ub-AMC, R&D Systems; 25°C) was 5000 M⁻¹ s⁻¹.
